Residue numbers refer to the chain shown, from its start.
T1: human DLL3 (human, UniProt Q9NYJ7 27-492, limits assumed)
T1 construct: also called hDLL3; DLL3 protein
T1 sequence: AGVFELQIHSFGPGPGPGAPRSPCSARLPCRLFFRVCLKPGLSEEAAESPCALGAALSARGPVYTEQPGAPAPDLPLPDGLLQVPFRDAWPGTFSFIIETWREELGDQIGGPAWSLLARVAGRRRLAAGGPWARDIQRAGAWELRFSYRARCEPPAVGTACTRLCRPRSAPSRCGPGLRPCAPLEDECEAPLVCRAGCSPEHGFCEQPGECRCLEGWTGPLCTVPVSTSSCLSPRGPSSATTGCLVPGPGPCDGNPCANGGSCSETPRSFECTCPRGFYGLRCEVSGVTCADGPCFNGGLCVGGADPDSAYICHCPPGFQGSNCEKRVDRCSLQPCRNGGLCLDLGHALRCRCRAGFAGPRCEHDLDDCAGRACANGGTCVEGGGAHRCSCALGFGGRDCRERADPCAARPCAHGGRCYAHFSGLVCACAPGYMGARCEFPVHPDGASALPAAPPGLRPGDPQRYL

B1: SC16.63 (antibody, V domains shown)
VH: QVQLQQSGTELLRPGASVKISCKATGYTFSSYWMEWVKQRPGHGLEWIGEILPGSGTTQYNEKFKGKATFTADTSSNTAYMHLSSLTSEDSAVYYCARGTNSLWGQGTLVTVSA
VL: QIVLTQSPAIMSASPGEKVTMTCSASSSVSYMYWYQQKSGTSPKRWIYDTSKLASGVPARFSGSGSGTSYSLTISSMEAEDAATYYCQQWSSNPYTFGGGTKLEIK
notes: murine mAb
B2: SC16.67 (antibody, V domains shown)
VH: EVQLVETGGGLVQPKGSLKLSCAVSAFTFTTYAMNWVRQAPGKGLEWVARIRNKSNNYATYYADSVKDRFTISRDDSQSMLYLQMNNLKIEDTAMYYCVFYYDYVYWGQGTLVTVSA
VL: QAVVTQESALTTSPGETVTLTCRSSTGAVTTSNYANWIQEKPDHLFTGLIGGTNNRAPGVPARFSGSLIGDKAALTITGAQTEDEAIYFCGLWYSNHLVFGGGTKLTVL
notes: murine mAb
B3: SC16.62 (antibody, V domains shown)
VH: EVMLVESGGDLVKPGGSLKLSCAASGFTFSSYAMSWVRQTPEKRLEWVAYISGGGDHIYYPDSVRGRFTISRDNAKDTLYLQMSSLRSEDTALYDCARVRDWYFDVWGAGTTVTVSS
VL: DIKMTQSPSSMYASLGERVTITCKASQDINSFLSWFQRKPGKSPKTLIYRANRLVDGVPSRFTGSGSGQEFSLTISSLEYEDLGIYYCLQYDEFPYTFGGGTKLEIK
notes: murine mAb
B4: SC16.78 (antibody, V domains shown)
VH: EVKLVESGGGLVKPGGSLKLSCAASGFTFGRYVMSWVRQTPEKKLEWVASITSGGTTYYPDSVKGRFTISRDNARNILYLQMSSLRSEDTAMYYCARVYYHYDDIFAYWGQGTLVTVSA
VL: B3 VL with F32Y, R38Q, K42R, T63S, E70D, F71Y, E79D, L83M, Y96F, G100S
notes: murine mAb
B5: SC16.84 (antibody, V domains shown)
VH: EVQLQQSGPELVKPGASMKISCKASGYSFTGYTMNWVKQSHGKNLEWIGLINPYNGGTTYNQKFKGKATLTVDKSSSTAYMELLSLTSEDSAVYYCALGYYGNYRRYFDVWGAGTTVTVSS
VL: DIQMTQSPSSLSASLGGKVTITCKASQDIKKYIAWYQHKPGKGPRLLIHYTSTLEPGIPSRFSGSGSGRDYSFSISNLEPEDIATYYCLQYDILWTFGGGTKLEIK
notes: murine mAb
B6: SC16.81 (antibody, V domains shown)
VH: QVQLKESGPVLVAPSQSLSITCTVSGFSLTSYGVHWVRQPPGKGLEWLGVIWAGGSTNYNSALMSRLSISKDNSKSQVFLKMNSLQTDDTAMYYCAKQGNFYAMDYWGQGTSVTVSS
VL: QIVLTQSPAIMSASLGERVTLTCTASSSVSSSYLHWYQQKPGSSPKLWIYSTSNLASGVPTRFSGSGSGTSYSLRISSMEAEDAATYYCHQYNRSPLTFGAGTKLELK
notes: murine mAb
B7: SC16.72 (antibody, V domains shown)
VH: EVQLQQSGPELVKPGASVKMSCKASGYTFTSYVMHWVKQKPGQGLEWIGYINPYNDGTKYNEKFKGKATLTSDKSSSTAYMELSSLTSEDSAVYYCARLRSRAMDYWGQGTSVTVSS
VL: ENVLTQSPAIMSASLGEKVTMSCRASSSVNYMSWYQQKSDASPKLWIYYTSNLAPGVPARFSGSGSGNSYSLTISSMEGEDAATYYCQQFTSSPYTFGGGTKLEIK
notes: murine mAb
B8: SC16.58 (antibody, V domains shown)
VH: DVQLVESGGGLVQPGGSRKLSCAASGFTFSSFGMHWVRQAPEKGLEWVAYISSGSSNIYYADTVKGRFTISRDNPKNTLFLQMTSLRSEDTAMYYCARGYYGNYDAMDYWGQGTSVTVSS
VL: DIQMTQSPASLSSSVGETVTITCRASENIYSYLAWYQQKQGKSPQLLVYNAKTLAEGVPSRFSGSGSGTQFSLKINSLQPEDFGTYYCQHHYDSPLTFGAGTKLELR
notes: murine mAb
B9: SC16.80 (antibody, V domains shown)
VH: EVQLQQSGPELVKPGGSKKISCKASGYSFTGYSMNWVKQSHGKNLEWIGLINPYSGGTIYNQKFKGKATLTVDKSSSTAYMELLSLTSEDSAVYYCARRSDYPLVYWGQGTLVTVSA
VL: ETTVTQSPASLSMAIGEKVTIRCITSTDIDDDMIWYQQKPGEPPKLLISEGNTLRPGVPSRFSSSGYGTDFVFTIENMLSEDVADYYCLKRDDLPYTFGGGTQVEIK
notes: murine mAb
B10: SC16.61 (antibody, V domains shown)
VH: EVLLQRSGPDLVKPGASVTIPCKASGYTFTDYNMDWVKQSHGKSLEWIGNINTYNGGTIYNQKFKGKATLTVDKPSSTAYMELRSLTSEDTAVYYCARRLRYGGHYFDYWGQGTALTVSS
VL: DIVMTQSTSSLAMSVGQKVTMSCKSSQSLLNSSNQKNYLAWYQQEPGQSPKLLVSFASTRESGVPDRFTGSGSGTDFTLTISGVQAEDLAVYYCQQHYSIPLTFGAGTKLELK
notes: murine mAb
B11: SC16.7 (antibody, V domains shown)
VH: EVQLQQSGPELVKPGASVKISCKASGYSFTGYKMHWVKQSHVKSLEWIGRINPYNGATSYNQNFKDKATLTVDKSSSTAYMDLHSLTSEDSAVYFCARGDYRYDWFAYWGQGTLVTVSA
VL: NIMMTQSPSSLAVSAGEKVTMSCKSSQSVLYSSNQKNYLAWYQQKPGQSPKLLIYWASTRESGVPDRFTGSGSGTDFTLTISTVQVEDLAVYYCHQYLSSWTFGGGTKLEIK
notes: murine mAb
B12: SC16.8 (antibody, V domains shown)
VH: QAQLQQSGAELVRPGTSVKVSCKASGYAFTNYLIEWVKQRPGQGLEWIGVINPGTGGTNYNENFKGKATLTADKSSSTAYMQLSSLTSDDSAVYFCARSPYDYHEGAMDYWGQGTSVTVSS
VL: EIQMTQSPSSMSASLGDRITITCQATQDIVKNLNWYQQKPGKPPSFLIYYAIELAEGVPSRFSGSGSGSDYSLTISNLESEDFADYYCLQFYEFPFTFGAGTKLELK
notes: murine mAb
B13: SC16.65 (antibody, V domains shown)
VH: QVTLKESGPGILQPSQTLSLTCSFSGFSLSTSGMGVGWIRQPSGKGLEWLALIWWDDVKRYNPALKSRLTISKDASSSQVFLKIASVDTADTATYYCARIASYDYDVVYAMDYWGQGTSVSVSS
VL: QIVLTQSPALMSASPGEKVTMTCSVTSSVSYMYWYQQKPRSSPKPWIYLTSNLASGVPARFSGSGSGTSYSLTISSVEAEDAATYYCQQWRNNPFTFGSGTKVEIK
notes: murine mAb
B14: SC16.73 (antibody, V domains shown)
VH: QVQLQQSGAELMKPGASVKISCKANGYTFSSYWIEWLRQRPGHGLEWIGEILPGSDNSNYNEKFKGKATFTADTSSNTAYMQLSSLTSEESAVYYCTRGLRRDGSYYYVMEHWGQGTSVTVSS
VL: DIQMTQSPSSLSASLGERVSLTCRASQDIGYSLNWLQQEPDGTIKRLIYATSSLDSGVPKRFSGSRSGSDYSLTISSLESEDFVDYYCLQYASSPWTFGGGTKLEIK
notes: murine mAb
B15: SC16.79 (antibody, V domains shown)
VH: EVQLQQSGPELVKPGASVKISCKTSGYTFTEYTMHWVKQSHGKSLEWIGGINPNNGGTSYNQKFKGKATLTVDKSSSTAYMELRSLTSEDSAVYYCARGPAWFAYWGQGTLVTVSA
VL: DIVMSQSPSSLAVSAGEKVTMSCKSSQSLLNSRTRKNYLAWYQQKPGQSPKLLIYWASTRESGVPDRFTGSGSGTDFTLTISSVQAEDLAVYYCKQSYNLYTFGGGTKLKIK
notes: murine mAb
B16: SC16.88 (antibody, V domains shown)
VH: QVQLQQSGAELARPGASVKLSCKASGYTCTSYWMQWVKQRPGQGLEWIGAIYPGDGDTRYTQKFKGKATLTADKSSSTAYMQLSSLASEDSAVYYCARGRRTEAWFAYWGQGTLVTVSA
VL: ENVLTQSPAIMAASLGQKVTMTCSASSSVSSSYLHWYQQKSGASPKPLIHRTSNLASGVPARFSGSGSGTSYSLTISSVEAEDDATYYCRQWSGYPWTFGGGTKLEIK
notes: murine mAb

Target: T1, human DLL3
Experiment: screen on immobilized hDLL3 or h293-hDLL3 cells
In short: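 Solid-phase ELISA on DLL3-His (0.5 μg/ml coating), developed with HRP anti-mouse IgG and TMB and read at OD 450, was one screen for supernatants of single-cell hybridomas from human DLL3-immunized mice taken after 10 days in culture. Flow-cytometry binding counted as positive only above the control.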

binding result | Binder
binds | B1
binds | B2
binds | B3
binds | B4
binds | B5
binds | B6
binds | B7
binds | B8
binds | B9
binds | B10
binds | B11
binds | B12
binds | B13
binds | B14
binds | B15
binds | B16
